Data as given in the supplement of paper PMC10567573.

B1: CAMK2B (parent)
chain: YQQIKAGAYDFPSPEWDTVTPEAK

Variants of: B1
Test: protein stability index of a GFP-peptide fusion (GPS, HEK-293T) (PSI 1-6); higher = more stable
Conditions: c terminus: a fixed tail appended
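Also: lentivirally expressed fusions sorted by FACS into six bins by GFP to DsRed ratio, PSI derived from sequencing read proportions per bin multiplied by bin number.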

| Variant | protein stability index |
| --- | --- |
| YQQIKAGAYDFPSPEWDCVTPEAK [T18C] | 3.37 |
| YQQIKAGAYDFPSPEWDDVTPEAK [T18D] | 4.25 |
| YQQIKAGAYDFPSPEWDEVTPEAK [T18E] | 4.27 |
| YQQIKAGAYDFPSPEWDFVTPEAK [T18F] | 3.09 |
| YQQIKAGAYDFPSPEWDGVTPEAK [T18G] | 3.56 |
| YQQIKAGAYDFPSPEWDHVTPEAK [T18H] | 3.63 |
| YQQIKAGAYDFPSPEWDIVTPEAK [T18I] | 3.06 |
| YQQIKAGAYDFPSPEWDKVTPEAK [T18K] | 3.87 |
| YQQIKAGAYDFPSPEWDLVTPEAK [T18L] | 3.35 |
| YQQIKAGAYDFPSPEWDMVTPEAK [T18M] | 3.24 |
| YQQIKAGAYDFPSPEWDNVTPEAK [T18N] | 3.69 |
| YQQIKAGAYDFPSPEWDPVTPEAK [T18P] | 3.82 |
| YQQIKAGAYDFPSPEWDQVTPEAK [T18Q] | 4.03 |
| YQQIKAGAYDFPSPEWDRVTPEAK [T18R] | 3.33 |
| YQQIKAGAYDFPSPEWDSVTPEAK [T18S] | 3.88 |
| YQQIKAGAYDFPSPEWDVVTPEAK [T18V] | 3.1 |
| YQQIKAGAYDFPSPEWDWVTPEAK [T18W] | 1.85 |
| YQQIKAGAYDFPSPEWDYVTPEAK [T18Y] | 2.79 |
| YQQIKAGAYDFPSPEWDTATPEAK [V19A] | 3.48 |
| YQQIKAGAYDFPSPEWDTCTPEAK [V19C] | 3.82 |
| YQQIKAGAYDFPSPEWDTDTPEAK [V19D] | 4.23 |
| YQQIKAGAYDFPSPEWDTETPEAK [V19E] | 3.8 |
| YQQIKAGAYDFPSPEWDTFTPEAK [V19F] | 1.97 |
| YQQIKAGAYDFPSPEWDTGTPEAK [V19G] | 3.92 |

| Variant | protein stability index |
| --- | --- |
| YQQIKAGAYDFPSPEWDTHTPEAK [V19H] | 4.01 |
| YQQIKAGAYDFPSPEWDTITPEAK [V19I] | 3.79 |
| YQQIKAGAYDFPSPEWDTKTPEAK [V19K] | 3.66 |
| YQQIKAGAYDFPSPEWDTLTPEAK [V19L] | 3.53 |
| YQQIKAGAYDFPSPEWDTMTPEAK [V19M] | 3.95 |
| YQQIKAGAYDFPSPEWDTNTPEAK [V19N] | 3.97 |
| YQQIKAGAYDFPSPEWDTPTPEAK [V19P] | 3.69 |
| YQQIKAGAYDFPSPEWDTQTPEAK [V19Q] | 4.01 |
| YQQIKAGAYDFPSPEWDTRTPEAK [V19R] | 2.99 |
| YQQIKAGAYDFPSPEWDTSTPEAK [V19S] | 3.59 |
| YQQIKAGAYDFPSPEWDTTTPEAK [V19T] | 3.96 |
| YQQIKAGAYDFPSPEWDTWTPEAK [V19W] | 2.79 |
| YQQIKAGAYDFPSPEWDTYTPEAK [V19Y] | 2.16 |
| YQQIKAGAYDFPSPEWDTVAPEAK [T20A] | 3.48 |
| YQQIKAGAYDFPSPEWDTVCPEAK [T20C] | 3.51 |
| YQQIKAGAYDFPSPEWDTVDPEAK [T20D] | 4.31 |
| YQQIKAGAYDFPSPEWDTVEPEAK [T20E] | 3.93 |
| YQQIKAGAYDFPSPEWDTVFPEAK [T20F] | 3.03 |
| YQQIKAGAYDFPSPEWDTVGPEAK [T20G] | 3.7 |
| YQQIKAGAYDFPSPEWDTVHPEAK [T20H] | 3.86 |
| YQQIKAGAYDFPSPEWDTVIPEAK [T20I] | 3.16 |
| YQQIKAGAYDFPSPEWDTVKPEAK [T20K] | 3.41 |
| YQQIKAGAYDFPSPEWDTVLPEAK [T20L] | 3.15 |
| YQQIKAGAYDFPSPEWDTVMPEAK [T20M] | 3.16 |

| Variant | protein stability index |
| --- | --- |
| YQQIKAGAYDFPSPEWDTVNPEAK [T20N] | 3.91 |
| YQQIKAGAYDFPSPEWDTVPPEAK [T20P] | 3.18 |
| YQQIKAGAYDFPSPEWDTVQPEAK [T20Q] | 3.34 |
| YQQIKAGAYDFPSPEWDTVRPEAK [T20R] | 3.47 |
| YQQIKAGAYDFPSPEWDTVSPEAK [T20S] | 3.74 |
| YQQIKAGAYDFPSPEWDTVVPEAK [T20V] | 3.66 |
| YQQIKAGAYDFPSPEWDTVWPEAK [T20W] | 2.46 |
| YQQIKAGAYDFPSPEWDTVYPEAK [T20Y] | 3.06 |
| YQQIKAGAYDFPSPEWDTVTAEAK [P21A] | 3.44 |
| YQQIKAGAYDFPSPEWDTVTCEAK [P21C] | 3.29 |
| YQQIKAGAYDFPSPEWDTVTDEAK [P21D] | 4.05 |
| YQQIKAGAYDFPSPEWDTVTEEAK [P21E] | 4.3 |
| YQQIKAGAYDFPSPEWDTVTFEAK [P21F] | 2.78 |
| YQQIKAGAYDFPSPEWDTVTGEAK [P21G] | 3.65 |
| YQQIKAGAYDFPSPEWDTVTHEAK [P21H] | 3.42 |
| YQQIKAGAYDFPSPEWDTVTIEAK [P21I] | 3 |
| YQQIKAGAYDFPSPEWDTVTKEAK [P21K] | 3.76 |
| YQQIKAGAYDFPSPEWDTVTLEAK [P21L] | 3.28 |
| YQQIKAGAYDFPSPEWDTVTMEAK [P21M] | 3.31 |
| YQQIKAGAYDFPSPEWDTVTNEAK [P21N] | 3.78 |
| YQQIKAGAYDFPSPEWDTVTQEAK [P21Q] | 3.91 |
| YQQIKAGAYDFPSPEWDTVTREAK [P21R] | 3.2 |
| YQQIKAGAYDFPSPEWDTVTSEAK [P21S] | 3.62 |
| YQQIKAGAYDFPSPEWDTVTTEAK [P21T] | 3.6 |

| Variant | protein stability index |
| --- | --- |
| YQQIKAGAYDFPSPEWDTVTVEAK [P21V] | 3.42 |
| YQQIKAGAYDFPSPEWDTVTWEAK [P21W] | 2.53 |
| YQQIKAGAYDFPSPEWDTVTYEAK [P21Y] | 3.08 |
| YQQIKAGAYDFPSPEWDTVTPAAK [E22A] | 2.9 |
| YQQIKAGAYDFPSPEWDTVTPCAK [E22C] | 2.82 |
| YQQIKAGAYDFPSPEWDTVTPDAK [E22D] | 3.89 |
| YQQIKAGAYDFPSPEWDTVTPFAK [E22F] | 2.3 |
| YQQIKAGAYDFPSPEWDTVTPGAK [E22G] | 3.27 |
| YQQIKAGAYDFPSPEWDTVTPHAK [E22H] | 2.98 |
| YQQIKAGAYDFPSPEWDTVTPIAK [E22I] | 3.05 |
| YQQIKAGAYDFPSPEWDTVTPKAK [E22K] | 2.93 |
| YQQIKAGAYDFPSPEWDTVTPLAK [E22L] | 2.98 |
| YQQIKAGAYDFPSPEWDTVTPMAK [E22M] | 2.63 |
| YQQIKAGAYDFPSPEWDTVTPNAK [E22N] | 3.41 |
| YQQIKAGAYDFPSPEWDTVTPPAK [E22P] | 2.93 |
| YQQIKAGAYDFPSPEWDTVTPQAK [E22Q] | 2.67 |
| YQQIKAGAYDFPSPEWDTVTPRAK [E22R] | 2.91 |
| YQQIKAGAYDFPSPEWDTVTPSAK [E22S] | 2.97 |
| YQQIKAGAYDFPSPEWDTVTPTAK [E22T] | 3.05 |
| YQQIKAGAYDFPSPEWDTVTPVAK [E22V] | 2.82 |
| YQQIKAGAYDFPSPEWDTVTPWAK [E22W] | 2.08 |
| YQQIKAGAYDFPSPEWDTVTPYAK [E22Y] | 2.46 |
